Test system: peptide library, one residue held at a place counted from the S/T acceptor
Test: relative phosphorylation of the sub-library (ratio to the mean residue at this position); higher = residue favoured
Outline: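 Purified recombinant kinases (human or orthologue constructs) were incubated in 384-well plates with biotinylated degenerate peptide sub-libraries, each fixing one residue at one position around a central Ser/Thr. Peptides were at 50 μM, with 50 μM ATP spiked with γ-32P-ATP, for 90 min under kinase-specific conditions. Spots on streptavidin membranes were phosphorimaged and quantified by densitometry. Relative sub-library phosphorylation is a ratio to the mean residue at that position.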

NEK2, construct: Full length, human, sequence (P51955 whole entry, looked up): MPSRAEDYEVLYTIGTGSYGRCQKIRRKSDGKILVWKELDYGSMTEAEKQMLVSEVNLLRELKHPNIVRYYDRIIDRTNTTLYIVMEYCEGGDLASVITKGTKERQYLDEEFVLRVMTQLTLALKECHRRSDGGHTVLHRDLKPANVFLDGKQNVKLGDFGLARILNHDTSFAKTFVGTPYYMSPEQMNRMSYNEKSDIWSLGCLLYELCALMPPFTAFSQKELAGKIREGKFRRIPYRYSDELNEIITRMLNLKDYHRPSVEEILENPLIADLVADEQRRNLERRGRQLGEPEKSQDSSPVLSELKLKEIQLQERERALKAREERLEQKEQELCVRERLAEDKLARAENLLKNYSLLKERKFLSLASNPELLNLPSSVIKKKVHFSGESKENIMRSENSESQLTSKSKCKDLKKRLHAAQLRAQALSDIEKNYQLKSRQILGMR

MAPK9, construct: Full length, human (from UniProt P45984)
relative phosphorylation
Conditions	at +1	at +2	at +3	at +4	at -1	at -2	at -3	at -4	at -5
A fixed	0.338	0.988	1.43	1.17	1.16	2.09	1.24	1.17	1.14
D fixed	0.147	0.96	1.38	1.21	0.686	0.686	1.13	1.19	0.957
E fixed	0.151	0.694	1.34	1.27	0.862	0.379	1.19	1.09	0.869
F fixed	0.358	0.75	0.781	0.805	0.68	0.717	0.814	0.965	0.946
G fixed	0.646	1.33	1.53	1.32	1.28	0.653	1.21	1.14	1.15
H fixed	0.195	0.997	0.985	1.02	1	0.494	0.95	0.878	0.924
I fixed	0.433	1.24	0.638	0.879	0.695	1.28	0.76	0.861	0.801
K fixed	0.164	0.632	0.648	0.795	1.09	0.545	0.915	1.08	1.34
L fixed	0.462	1.18	0.879	0.787	1.37	2.05	1.08	1	0.923
M fixed	0.314	1.75	0.959	0.913	1.4	1.28	0.93	1.04	0.801
N fixed	0.17	1.07	0.973	0.934	0.854	0.494	1.07	0.886	0.94
P fixed	12.4	0.721	0.886	1.66	1.28	2.58	1.16	1.24	1.38
Q fixed	0.193	1.06	1.01	1.04	1.36	0.741	1.07	1.06	1.02
R fixed	0.187	0.803	0.908	0.802	1.25	0.635	1.09	0.938	1.02
V fixed	0.339	1.4	0.845	0.869	0.76	1.32	0.768	0.365	0.833
W fixed	0.303	0.69	0.951	0.817	0.533	0.543	0.729	1.02	0.886
Y fixed	0.239	0.745	0.859	0.712	0.743	0.511	0.875	1.09	1.07
pThr fixed	0.495	2.23	1.06	1.16	0.432	0.933	0.957	0.975	0.996
pTyr fixed	0.347	0.987	1.07	0.719	0.468	0.429	0.778	0.808	0.836

NEK2, construct: Full length, human (from UniProt P51955)
relative phosphorylation
Conditions	at +1	at +2	at +3	at +4	at -1	at -2	at -3	at -4	at -5
A fixed	0.655	1.03	0.897	0.958	1.25	1.5	1.09	1.06	1.3
D fixed	0.189	0.318	0.782	0.806	0.644	0.552	0.307	0.772	0.938
E fixed	0.203	0.195	0.916	0.811	0.81	0.438	0.301	0.73	0.694
F fixed	1.19	0.835	0.878	0.906	0.783	1.2	2.37	1.2	1.3
G fixed	0.656	0.834	1.06	1.12	0.959	1.29	1.23	1.29	1.14
H fixed	1.03	1.43	1.08	1.04	1.03	1.16	1.07	1.11	1
I fixed	1.5	0.624	0.864	0.775	0.561	0.636	0.466	0.818	0.767
K fixed	0.846	1.69	1.18	1.4	1.53	1.42	0.638	1.07	1.19
L fixed	1.79	0.638	1.06	0.949	0.917	0.799	1.89	1.04	0.828
M fixed	2.1	0.873	0.899	0.875	1.4	1.11	1.77	0.964	0.862
N fixed	0.85	0.888	1.02	0.964	1.04	0.989	0.733	0.931	0.884
P fixed	0.151	0.771	1.08	1.14	0.23	0.405	0.965	0.963	1.04
Q fixed	1.26	0.696	0.874	1.06	1.21	0.852	0.661	0.881	0.81
R fixed	1.26	3.71	1.5	1.45	1.98	1.75	0.77	0.902	1.18
V fixed	1.18	0.71	0.875	0.745	0.743	0.65	0.48	0.828	0.934
W fixed	0.983	0.748	0.916	1.14	0.85	1.06	1.11	1.44	1.1
Y fixed	1.17	1.01	1.13	0.874	1.08	1.19	1.15	1.01	1.03
pThr fixed	0.425	0.383	0.557	0.688	0.278	0.449	0.545	0.747	0.658
pTyr fixed	0.547	0.275	0.758	0.62	0.697	0.525	0.752	0.642	0.66
